Source: paper PMC5882232

Biological target: TRPA1b-FLAG (mouse TRPA1b, splice variant of TRPA1 lacking exon 20, tagged with FLAG) (mouse)
Assay: native gel or EMSA

stoichiometry N: 4
Substance: TRPA1b-FLAG (mouse TRPA1b, splice variant of TRPA1 lacking exon 20, tagged with FLAG) (natural protein)
